This experiment has as its target Cdc2MsB, A-type cyclin-dependent kinase of Medicago sativa (two-hybrid bait, GAL4 DNA binding domain fusion) (Medicago sativa, UniProt P04386 1-147; Q05006 1-294). Description: yeast two-hybrid (growth on selective medium, beta-galactosidase). The source says: FIG. 5. Interaction in a yeast two-hybrid assay of alfalfa Cdc2-type or Cdc2-related kinases and different D-type cyclins and myosin. The different Cdc2Ms kinase cDNAs are cloned in the pGBT9 bait vector and the cDNAs of the interacting partners in the pGAD424 activation domain vector. (A) Growth of PJ69-4a yeast cells transformed with expression vectors comprising the indicated protein coding sequences on the agar surface of a selective medium lacking tryptophan, leucine, adenine and histidine. The relative growth values were also determined in liquid cultures and are numerically indicated. (B) Quantification of β-galactosidase enzyme acitivity of yeast strains described in (A).
The yeast strain PJ69-4A [MATa trp1-901, leu2-3,112 ura3-52, his3-200 gal4delta, gal80delta GAL2-ADE2, LYS2:: GAL1-HIS3, met2::GAL7-lacZ] (James et al. 1996), which contains three reporter genes (HIS3, ADE2 and lacZ), was used in library screening, growth tests and β-galactosidase assays. Transformation of yeast with pGBT9, pGAD424, pBD-GAL4 and pAD-GAL4 constructs was performed as described by Schiesti and Gietz (1989). The transformation mixture was plated on yeast dropout selection media either lacking leucine and tryptophan (SD-Trp-Leu) for testing the transformation efficiency or on media lacking leucine, tryptophan and histidine, for testing protein-protein interactions. […]

From patent US20050050591A1 (published 2005) come the findings set out here.

B1: MtCycDm, novel D-type cyclin of Medicago truncatula (two-hybrid prey, GAL4 activation domain fusion) (other, not shown: large carriers)
chain: MIEEEQLPAILMPSDCELLCGEDSSEVLTGDLPECSSDLDSSSSSQLPSSSLFAEEEEDSIAVFIEHEFKFVPGFDYVSRFQSRSLESSTREEAIAWILKVHEYYGFQPLTAYLSVNYMDRFLDSRPLPGIKWMATATFICCMFVFSSKDGGPLVPSLLDFQIEGAKYIFQPRTMLIMELLVLTILDWRLRSITHLVSSVSLRATRFTGTFNHFIISRATEIILSNIRDASFLTYRPSCIAAAAILSAANEIPNWSFVNPEHAESWCEGLSKEKIIGCYELIQEIVSSNNRRNAPKVLPQLRVTARTTRWSTVSSLSSSPSSSSSPSYSLSYKKRKLNSCFWVDVDKGNSEGREKKQTR
notes: Tested only as a yeast two-hybrid fusion; The order GAL4 domain then insert follows the vector design; also called cyclin D of the invention; MTCYCDM gene product
For B1, the binding result is reported as “no binding”.
